Experimental data reported in patent US20190055322A1 (Ablynx, published 2019).

Key:
[1] = molecular target: T1, recombinant PcrV protein (rPcrV), strain PAO1, amino acid residues 1-294, C-terminal His6 (Pseudomonas aeruginosa strain PAO1); assay: ELISA, periplasmic extract on biotinylated rPcrV
[2] = molecular target: T2, PcrV of P. aeruginosa strain PA103 (on TTSS-induced bacteria) (Pseudomonas aeruginosa strain PA103); assay: cell-based or functional assay
[3] = molecular target: T2, PcrV of P. aeruginosa strain PA103 (on …); assay: cell-based or functional assay; remark: listed apart in the source
[4] = molecular target: Full length PcrV (aa 1-294), C-terminal c-myc and His6 tags (Pseudomonas aeruginosa strain PAO1); assay: ELISA, binder coated
[5] = molecular target: T1, recombinant PcrV protein (rPcrV), …; assay: SPR ProteOn, periplasmic extract on immobilised rPcrV
[6] = molecular target: T2, PcrV of P. aeruginosa strain PA103 (on …); assay: cell-based or functional assay; remark: listed apart in the source
[7] = molecular target: T2, PcrV of P. aeruginosa strain PA103 (on …); assay: cell-based or functional assay; remark: listed apart in the source
[8] = molecular target: T2, PcrV of P. aeruginosa strain PA103 (on …); assay: cell-based or functional assay; remark: listed apart in the source
[9] = molecular target: T3, PcrV fragment (aa 144-257), C-terminal c-myc and His6 tags (Pseudomonas aeruginosa); assay: ELISA, binder coated; NB = binding signal = background signal
T3 construct: also called small PcrV fragment

[10] = molecular target: GST-PcrV (strain PAO1, amino acid residues 1-294) (Pseudomonas aeruginosa strain PAO1); assay: SPR Biacore T100, GST-PcrV immobilised
For cytotox assay (% inhibition), P3X63, PA103 in this document: test concentration or dose not given here.

| Binder | binding ELISA (OD 450 nm) [1] | cytotox assay (% inhibition), P3X63, PA103 [2] | binding result [4] | koff [5] | % inhibition in P3X63 cytotoxicity assay, extract 1/150 [6] | Efficacy (%), P3X63 cytotoxicity, MOI 12 [7] | IC50 value (M), P3X63 cytotoxicity, MOI 12 [7] | Ratio (IC50 Fab 13.37/IC50 Nanobody), A549 cytotoxicity [8] | % inhibition, P3X63 cytotoxicity assay, MOI 4 [3] | IC50 (nM), P3X63 cytotoxicity assay, MOI 4 [3] | further results |
| --- | --- | --- | --- | --- | --- | --- | --- | --- | --- | --- | --- |
| Nanobody 6B05 (VHH, also called 06B05) VHH: EVQLVESGGGLVQPGGSLRLSCAASGSIFSINTMGWYRQAPGKQRELVSTITSNLVPHYADSVQGRFTISRDNARNTVYLQMNSLKPQDTAHYYCNAWARSSGATPYTNYWGQGTLVTVSS | 2.55 OD 450 nm | 32% | binds | 0.00018 s⁻¹ |  |  |  |  |  |  | % inhibition, P3X63 cytotoxicity assay, MOI 3 [3]: 100%; IC50 (nM), P3X63 cytotoxicity assay, MOI 3 [3]: 435 nM |
| Nanobody 319 (13F07-40GS-6B05) (VHH) EVQLVESGGGLVQAGGSLRLSCAASGNTFSTNPMYWYRQAEGKQRELVASISSRGITNYADSVRGRFSISRDNTKDTVYLQMNSLKPEDTAVYYCRLASLSSGTVYWGKGTLVTVSSGGGGSGGGGSGGGGSGGGGSGGGGSGGGGSGGGGSGGGGSEVQLVESGGGLVQPGGSLRLSCAASGSIFSINTMGWYRQAPGKQRELVSTITSNLVPHYADSVQGRFTISRDNARNTVYLQMNSLKPQDTAHYYCNAWARSSGATPYTNYWGQGTLVTVSS |  |  |  |  | 46% | 100% | 8.1e-11 M | 2 fold |  |  |  |
| Nanobody 285 (13F07-40GS-2B02) (VHH) EVQLVESGGGLVQAGGSLRLSCAASGNTFSTNPMYWYRQAEGKQRELVASISSRGITNYADSVRGRFSISRDNTKDTVYLQMNSLKPEDTAVYYCRLASLSSGTVYWGKGTLVTVSSGGGGSGGGGSGGGGSGGGGSGGGGSGGGGSGGGGSGGGGSEVQLVESGGGLVQPGDSLRLSCAASGRILSINNMVWYRQAPGKQRELVAHITSSGSTGYADSVKGRFTISRDNAKNTFYLQMTNLNPEDTAVYYCNCWVSSDSNAPLKNYWGQGTLVTVSS |  |  |  |  | 59% | 100% | 6.1e-11 M | 1 fold |  |  |  |
| Nanobody 14E10 (VHH) VHH: EVQLVESGGGLVQPGGSLRLSCAASGRIFSINTMGWYRQAPGKQRELVAGVTINAITNYADSVKGRFTISRDNAKNTVWLQMNSLKPEDTAVYYCHAWARSSGSAPYSQNWGQGTQVTVSS |  | 22% | binds | 0.0006 s⁻¹ |  |  |  |  |  |  | % inhibition, P3X63 cytotoxicity assay, MOI 3 [3]: 100%; IC50 (nM), P3X63 cytotoxicity assay, MOI 3 [3]: > 3000 nM; binding result [9]: no binding |
| Nanobody 1E11 (VHH, also called 01E11) VHH: EVQLVESGGGLVQPGGSLRLSCAASGSTRSVNPMAWFRQAPGRQREWVATISRSGYATYADSVKGRFTISGDNAKSSVYLQMNSLKPEDTAVYYCVTGTYWGQGTLVTVSS | 2.56 OD 450 nm | 33% | binds | 0.00035 s⁻¹ |  |  |  |  | 58% | 23 nM |  |
| Nanobody 335 (5H01-40GS-1E11) (VHH) EVQLVESGGGLVQPGGSLRLSCAASGSTLDYYAIGWFRQAPGKEREGVSCTSNSGSTYYGGSVKGRFTASRDNAKNTVYLQMNSLRPEDTAVYYCVATIGCATLGGTLDVQRYYYRGQGTLVTVSSGGGGSGGGGSGGGGSGGGGSGGGGSGGGGSGGGGSGGGGSEVQLVESGGGLVQPGGSLRLSCAASGSTRSVNPMAWFRQAPGRQREWVATISRSGYATYADSVKGRFTISGDNAKSSVYLQMNSLKPEDTAVYYCVTGTYWGQGTLVTVSS |  |  |  |  | 46% | 100% | 6.4e-11 M | 1 fold |  |  |  |
| Nanobody 13F07 (VHH) VHH: EVQLVESGGGLVQAGGSLRLSCAASGNTFSTNPMYWYRQAEGKQRELVASISSRGITNYADSVRGRFSISRDNTKDTVYLQMNSLKPEDTAVYYCRLASLSSGTVYWGKGTLVTVSS |  | 13% | binds | 0.00092 s⁻¹ |  |  |  |  |  |  | % inhibition, P3X63 cytotoxicity assay, MOI 1.5 [3]: > 20%; IC50 (nM), P3X63 cytotoxicity assay, MOI 1.5 [3]: 35600 nM; binding result [9]: no binding |
| Nanobody 277 (5H01-40GS-11B09) (VHH) EVQLVESGGGLVQPGGSLRLSCAASGSTLDYYAIGWFRQAPGKEREGVSCTSNSGSTYYGGSVKGRFTASRDNAKNTVYLQMNSLRPEDTAVYYCVATIGCATLGGTLDVQRYYYRGQGTLVTVSSGGGGSGGGGSGGGGSGGGGSGGGGSGGGGSGGGGSGGGGSEVQLVESGGGLVQAGGSLRLSCAASRLTFNHYNMGWFRQAPGKERERVAEVTWSGDKIYYVDSVKGRFTISRDNTPNPVYLYLQMNSLKPEDTAVYYCATAPRGLPYANGYWGQGTLVTVSS |  |  |  |  | 85% | 100% | 1.3e-11 M | 8 fold |  |  |  |
| Nanobody 275 (2G09-40GS-5H01) (VHH) EVQLVESGGGLVQPGGSLRLSCAASGSFGDNYELYAMTWFRQAPGERRDFVASVTGDGSTSYADSVKDRFTISRDNAKKLMYLQMNSLKPEDTAVYYCRLLNYWGQGTLVTVSSGGGGSGGGGSGGGGSGGGGSGGGGSGGGGSGGGGSGGGGSEVQLVESGGGLVQPGGSLRLSCAASGSTLDYYAIGWFRQAPGKEREGVSCTSNSGSTYYGGSVKGRFTASRDNAKNTVYLQMNSLRPEDTAVYYCVATIGCATLGGTLDVQRYYYRGQGTLVTVSS |  |  |  |  | 66% | 100% | 3.7e-09 M | 1 fold |  |  |  |
| Nanobody 7E09 (VHH, also called 07E09) VHH: EVQLVESGGGLVQAGGSLRLSCAASGRTFSSYIMGWFRQAPGKAREFVADITWGQRPYYADSVKGRFTISRDNAKNTVYLEMNSLKPEDTAVYYCAADLGVVIREEHAYWGQGTLVTVSS | 2.59 OD 450 nm | 16% | binds | 0.0004 s⁻¹ |  |  |  |  |  |  | binding result [9]: no binding |
| Nanobody 5H01 (VHH, also called 05H01) VHH: EVQLVESGGGLVQPGGSLRLSCAASGSTLDYYAIGWFRQAPGKEREGVSCTSNSGSTYYGGSVKGRFTASRDNAKNTVYLQMNSLRPEDTAVYYCVATIGCATLGGTLDVQRYYYRGQGTQVTVSS | 2.69 OD 450 nm | 76% | binds | 4.9e-05 s⁻¹ |  |  |  |  | 100% | 7 nM | Kd [10]: 1 nM; koff [10]: 0.00014 s⁻¹; kon [10]: 160000 M⁻¹ s⁻¹ |
| Fab 13.37 (Fab, V domains shown) VH: QVQLVESGGGVVQPGRSLRLSCAASGFTFSSYPLHWVRQAPGKGLEWVSFISYDGSEKYYASSVKGRFTISRDNSENTLYLQMNSLRPEDTAVYYCARNRGDIYYDFTYAMDIWGQGTMVTVSS VL: DIQMTQSPSSLSASVGDRVTITCRASQSISRWVAWYQQRPGKAPNLLIYDASSLKSGVPSRFSGSGSGTEFTLTISSLQPEDIATYYCQQFWGTPYTFGQGTKLEIKR |  |  | binds |  |  | 100% | 5.4e-10 M |  | 100% | 8 nM | % inhibition, P3X63 cytotoxicity assay, MOI 1.5 [3]: 100%; % inhibition, P3X63 cytotoxicity assay, MOI 3 [3]: 100%; IC50 (nM), P3X63 cytotoxicity assay, MOI 1.5 [3]: 1 nM; IC50 (nM), P3X63 cytotoxicity assay, MOI 3 [3]: 1 nM |
| Nanobody 2B10 (VHH, also called 02B10) VHH: EVQLVESGGGLVQPGGSLRLSCAASGSIFSINNMGWYRQAPGKQRELVTVVTSNLITTYADSVKGRFTISRDNAKNTVYLQMNSLKPEDTAVYYCNAWARSVGSVPYSQFWGQGTLVTVSS | 2.57 OD 450 nm | 38% | binds | 0.00018 s⁻¹ |  |  |  |  | 100% | 647 nM | Kd [10]: 0.5 nM; koff [10]: 0.00025 s⁻¹; kon [10]: 510000 M⁻¹ s⁻¹ |
